Measured values published in the supplement of paper PMC11246515.
± gives the standard deviation of the averaged measurements.

Assay: total protein half-life in vivo (active degradation + dilution); higher = more stable protein
[1] = E. coli NCM3722 delta-clpP delta-lon delta-hslV, growth: N-lim chemostat, doubling time 6 h
[2] = E. coli NCM3722 delta-clpP, growth: N-lim chemostat, doubling time 6 h
[3] = E. coli NCM3722 delta-hslV, growth: N-lim chemostat, doubling time 6 h
[4] = E. coli NCM3722 delta-lon, growth: N-lim chemostat, doubling time 6 h
[5] = E. coli NCM3722 delta-smpB, growth: N-lim chemostat, doubling time 6 h
[6] = wild type E. coli NCM3722, growth: C-lim chemostat, doubling time 3 h
[7] = wild type E. coli NCM3722, growth: C-lim chemostat, doubling time 6 h
[8] = wild type E. coli NCM3722, growth: C-lim chemostat, doubling time 12 h
[9] = wild type E. coli NCM3722, growth: N-lim chemostat, doubling time 6 h
[10] = wild type E. coli NCM3722, growth: N-lim chemostat, doubling time 12 h
[11] = wild type E. coli NCM3722, growth: P-lim chemostat, doubling time 6 h
[12] = wild type E. coli NCM3722, growth: P-lim chemostat, doubling time 12 h

Row | Sequence | total protein half-life in vivo [1] [h] | total protein half-life in vivo [2] [h] | total protein half-life in vivo [3] [h] | total protein half-life in vivo [4] [h] | total protein half-life in vivo [5] [h] | total protein half-life in vivo [6] [h] | total protein half-life in vivo [7] [h] | total protein half-life in vivo [8] [h] | total protein half-life in vivo [9] [h] | total protein half-life in vivo [10] [h] | total protein half-life in vivo [11] [h] | total protein half-life in vivo [12] [h]
1 | MIIATAGHVDHGKTTLLQAITGVNADRLPEEKKRGMTIDLGYAYWPQPDGRVPGFIDVPGHEKFLSNMLAGVGGIDHALLVVACDDGVMAQTREHLAILQLTGNPMLTVALTKADRVDEARVDEVERQVKEVLREYGFAEAKLFITAATEGRGMDALREHLLQLPEREHASQHSFRLAIDRAFTVKGAGLVVTGTALSGEVKVGDSLWLTGVNKPMRVRALHAQNQPTETANAGQRIALNIAGDAEKEQINRGDWLLADVPPEPFTRVIVELQTHTPLTQWQPLHIHHAASHVTGRVSLLEDNLAELVFDTPLWLADNDRLVLRDISARNTLAGARVVMLNPPRRGKRKPEYLQWLASLARAQSDADALSVHLERGAVNLADFAWARQLNGEGMRELLQQPGYIQAGYSLLNAPVAARWQRKILDTLATYHEQHRDEPGPGRERLRRMALPMEDEALVLLLIEKMRESGDIHSHHGWLHLPDHKAGFSEEQQAIWQKAEPLFGDEPWWVRDLAKETGTDEQAMRLTLRQAAQQGIITAIVKDRYYRNDRIVEFANMIRDLDQECGSTCAADFRDRLGVGRKLAIQILEYFDRIGFTRRRGNDHLLRDALLFPEK | 6.2 ± 0.45 | 4.93 ± 0.33 | 5.22 ± 0.44 | 5.39 ± 0.23 | 4.57 ± 0.11 | 2.77 ± 0.057 | 5.56 ± 0.59 | 9.26 ± 0.52 | 4.97 ± 0.16 | 8.6 ± 0.22 | 4.25 ± 0.27 | 6.81 ± 0.26
2 | MIIGNIHNLQPWLPQELRQAIEHIKAHVTAETPKGKHDIEGNRLFYLISEDMTEPYEARRAEYHARYLDIQIVLKGQEGMTFSTQPAGAPDTDWLADKDIAFLPEGVDEKTVILNEGDFVVFYPGEVHKPLCAVGAPAQVRKAVVKMLMA [P0AF96] | 4.25 ± 0.25 | 4.23 ± 2.1 | 3.43 | – | 3.75 ± 0.1 | – | – | 8.12 ± 0.22 | 3.18 ± 0.1 | 5.175 ± 0.0007 | 4.55 ± 0.89 | 10.1 ± 0.29
3 | MIIHFTLNGAPQELTVNPGENVQKLLFNMGMHSVRNSDDGFGFAGSDAIIFNGNIVNASLLIAAQLEKADIRTAESLGKWNELSLVQQAMVDVGVVQSGYNDPAAALIITDLLDRIAAPTREEIDDALSGLFSRDAGWQQYYQVIELAVARKNNPQATIDIAPTFRDDLEVIGKHYPKTDAAKMVQAKPCYVEDRVTADACVIKMLRSPHAHALITHLDVSKAEALPGVVHVITHLNCPDIYYTPGGQSAPEPSPLDRRMFGKKMRHVGDRVAAVVAESEEIALEALKLIDVEYEVLKPVMSIDEAMAEDAPVVHDEPVVYVAGAPDTLEDDNSHAAQRGEHMIINFPIGSRPRKNIAASIHGHIGDMDKGFADADVIIERTYNSTQAQQCPTETHICFTRMDGDRLVIHASTQVPWHLRRQVARLVGMKQHKVHVIKERVGGGFGSKQDILLEEVCAWATCVTGRPVLFRYTREEEFIANTSRHVAKVTVKLGAKKDGRLTAVKMDFRANTGPYGNHSLTVPCNGPALSLPLYPCDNVDFQVTTYYSNICPNGAYQGYGAPKGNFAITMALAELAEQLQIDQLEIIERNRVHEGQELKILGAIGEGKAPTSVPSAASCALEEILRQGREMIQWSSPKPQNGDWHIGRGVAIIMQKSGIPDIDQANCMIKLESDGTFIVHSGGADIGTGLDTVVTKLAAEVLHCPPQDVHVISGDTDHALFDKGAYASSGTCFSGNAARLAAENLREKILFHGAQMLGEPVADVQLATPGVVRGKKGEVSFGDIAHKGETGTGFGSLVGTGSYITPDFAFPYGANFAEVAVNTRTGEIRLDKFYALLDCGTPVNPELALGQIYGATLRAIGHSMSEEIIYDAEGHPLTRDLRSYGAPKIGDIPRDFRAVLVPSDDKVGPFGAKSISEIGVNGAAPAIATAIHDACGIWLREWHFTPEKILTALEKI | > 8 | – | – | – | – | – | – | 9.16 | – | – | – | –
4 | MIIKRTPQAASPLASWLSYLENLHSKTIDLGLERVSLVAARLGVLKPAPFVFTVAGTNGKGTTCRTLESILMAAGYKVGVYSSPHLVRYTERVRVQGQELPESAHTASFAEIESARGDISLTYFEYGTLSALWLFKQAQLDVVILEVGLGGRLDATNIVDADVAVVTSIALDHTDWLGPDRESIGREKAGIFRSEKPAIVGEPEMPSTIADVAQEKGALLQRRGVEWNYSVTDHDWAFSDAHGTLENLPLPLVPQPNAATALAALRASGLEVSENAIRDGIASAILPGRFQIVSESPRVIFDVAHNPHAAEYLTGRMKALPKNGRVLAVIGMLHDKDIAGTLAWLKSVVDDWYCAPLEGPRGATAEQLLEHLGNGKSFDSVAQAWDAAMADAKAEDTVLVCGSFHTVAHVMEVIDARRSGGK | 4.62 ± 0.55 | 4.95 ± 1.1 | 4.08 ± 0.39 | – | 3.813 ± 0.021 | 3.151 ± 0.024 | 5.09 ± 0.13 | 9.2 ± 1.6 | 3.807 ± 0.036 | 6.07 ± 0.99 | 5.34 ± 0.23 | 9.6 ± 0.66
5 | MIINNVKLVLENEVVSGSLEVQNGEIRAFAESQSRLPEAMDGEGGWLLPGLIELHTDNLDKFFTPRPKVDWPAHSAMSSHDALMVASGITTVLDAVAIGDVRDGGDRLENLEKMINAIEETQKRGVNRAEHRLHLRCELPHHTTLPLFEKLVQREPVTLVSLMDHSPGQRQFANREKYREYYQGKYSLTDAQMQQYEEEQLALAARWSQPNRESIAALCRARKIALASHDDATHAHVAESHQLGSVIAEFPTTFEAAEASRKHGMNVLMGAPNIVRGGSHSGNVAASELAQLGLLDILSSDYYPASLLDAAFRVADDQSNRFTLPQAVKLVTKNPAQALNLQDRGVIGEGKRADLVLAHRKDNHIHIDHVWRQGKRVF | – | – | – | – | – | – | – | – | – | – | 1.05 ± 0.23 | 1.89 ± 0.87
6 | MIISAASDYRAAAQRILPPFLFHYMDGGAYSEYTLRRNVEDLSEVALRQRILKNMSDLSLETTLFNEKLSMPVALAPVGLCGMYARRGEVQAAKAADAHGIPFTLSTVSVCPIEEVAPAIKRPMWFQLYVLRDRGFMRNALERAKAAGCSTLVFTVDMPTPGARYRDAHSGMSGPNAAMRRYLQAVTHPQWAWDVGLNGRPHDLGNISAYLGKPTGLEDYIGWLGNNFDPSISWKDLEWIRDFWDGPMVIKGILDPEDARDAVRFGADGIVVSNHGGRQLDGVLSSARALPAIADAVKGDIAILADSGIRNGLDVVRMIALGADTVLLGRAFLYALATAGQAGVANLLNLIEKEMKVAMTLTGAKSISEITQDSLVQGLGKELPAALAPMAKGNAA | 6.01 ± 0.3 | 5.992 ± 0.053 | 4 ± 0.14 | 3.3 ± 0.036 | 3.68 ± 0.38 | 2.28 ± 0.062 | 3.76 ± 0.41 | 5.29 ± 0.5 | 3.73 ± 0.068 | 6.57 ± 0.92 | 3.28 ± 0.48 | 6.38 ± 0.44
7 | MIISEMQRKLATWAATDPSLRIQRLLRLITQPEWLAEAARITLSSKGAHTPGVDGVNKTMLQARLAVELQILRDELLSGHYQPLPARRVYIPKSNGKLRPLGIPALRDRIVQRAMLMAMEPIWESDFHTLSYGFRPERSVHHAIRTVKLQLTDCGETRGRWVIEGDLSSYFDTVHHRLLMKAVRRRISDARFMTLLWKTIKAGHIDVGLFRAASEGVPQGGVISPLLSNIMLNEFDQYLHERYLSGKARKDRWYWNNSIQRGRSTAVRENWQWKPAVAYCRYADDFVLIVKGTKAQVEAIREECRGVLEGSLKLRLNMDKTKIPHVNDGFIFLGHRLIRKRSRYGEMRVVSTIPQEKARNFAASLTALLWKVRISGEILLG | 4.72 ± 0.55 | – | – | – | – | – | – | – | – | – | – | –
